In paper PMC3082896:

Test system: LdTOP1L/S large subunit (LdTOP1L);LdTOP1L/S small subunit (LdTOP1S) (Leishmania donovani;Leishmania donovani)
Experiment: EMSA

In the case of “GAAAAAAGACTTAGAAAAATTTTTA (double strand)”, the binding signal (% of input DNA bound) is reported as 79.
